# Measurements from the supplement of paper PMC10126150.
# ± gives the standard deviation of the averaged measurements.
# Tested on: ATP
# Test: switch fluorescence ratio, 500 uM ATP over buffer (Cy3 cluster intensity, sum of 5 cycles each) (fold (ratio)); higher = stronger signal-on switching upon ATP binding; sequences stand for … in TCGTCGGCAGCGTCAGATGTGTATAAGAGACAGTTTTTTTTTTTTTTTTTTTTTTTTT…TC
# Details: aptamer strand: ATP DNA aptamer (quencher-CACCTGGGGGAGTATTGCGGAGGAAGG + anchor), 100 nM annealed; ATP concentration: 500 uM
# Outline: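 Cy3-labelled switching-strand clusters on a modified Illumina MiSeq flow-cell were annealed to 100 nM quencher-labelled ATP aptamer, imaged in selection buffer, then imaged after 15 min with 500 uM ATP at 22 °C. Five buffer/ATP cycles ran, with NaOH stripping and re-annealing between them. The fluorescence ratio is summed target-cycle over summed buffer-cycle Cy3 intensity per cluster, averaged per switch-domain sequence. Clusters outside 100-1000 RFU were excluded.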
# 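Note: ATP exposure 15 min at 22 °C before imaging.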
row,Sequence,switch fluorescence ratio
1,AGTCCGTCTA,1.01 ± 0.05
2,GTTGGATGGT,0.964 ± 0.019
3,TGAGTAAGTA,0.995 ± 0.048
4,TGTGGTCCAA,0.9855 ± 0.0036
5,AGATTGGTTA,0.992 ± 0.021
6,GGTTCGCAGC,1.15 ± 0.025
7,TTGGGGGCAG,1.01 ± 0.018
8,GCATTAAGGG,1.01 ± 0.039
9,CTGCCCGCCC,1.3 ± 0.12
10,GAATGTTGTT,0.9476 ± 0.0092
11,AATAGTTTCA,1.01 ± 0.014
12,CGCAATTAGG,3.97 ± 0.46
13,TAATCCTAGT,0.997 ± 0.036
14,GAAAAAAAAT,1 ± 0.067
15,TATGTTGAGG,1 ± 0.035
16,TTCAAGGCAG,1.03 ± 0.043
17,CGTGCTTAGT,1.02 ± 0.022
18,CGGAAGTGCC,1.016 ± 0.0014
19,GTTTGGGTGG,0.9979 ± 0.0065
20,CGGCACAGCC,1.05 ± 0.057
21,TTGAAGGTCA,1.02 ± 0.015
22,TGGGGTGGGG,1.05 ± 0.09
23,GCATGTCAGT,0.9762 ± 0.00048
24,AAAGATAACT,1.024 ± 0.0098
25,GCAGCTGGG,1.03 ± 0.039
26,AAGTTGGTTA,0.991 ± 0.026

row,Sequence,switch fluorescence ratio
1,GGGGAACCAT,1.01 ± 0.039
2,ATGCAATTTT,1.017 ± 0.0034
3,AAAACTGTCA,1.009 ± 0.0086
4,AGCAAATAGT,1.28 ± 0.028
5,AGAAATGATA,1.001 ± 0.0019
6,TTAAAATACA,1.1 ± 0.14
7,ATTTCATCGT,1.03 ± 0.012
8,GTGGGGTAAA,1.01 ± 0.055
9,GCTTGGGAAC,0.993 ± 0.028
10,CATTCTTTTT,1.02 ± 0.049
11,GGGTTGGGAC,1.01 ± 0.051
12,ACGTTTTTGT,1.027 ± 0.0097
13,AGGCGCTGGG,0.999 ± 0.028
14,TGGTAGGGGT,1 ± 0.014
15,GGGGAAGTGG,1 ± 0.026
16,TTCCTGTGGG,1.02 ± 0.061
17,AGTATAGCGA,1.01 ± 0.035
18,TACTCGGCCG,1.02 ± 0.035
19,AGTGGGGCC,1 ± 0.075
20,GATAACGAGG,1.05 ± 0.02
21,ATTAGATGGT,1.02 ± 0.024
22,GCTGGTTAGT,1 ± 0.014
23,CGGGAAGGTT,1.08 ± 0.16
24,GCCTAGTATA,0.9714 ± 0.0049
25,AGTTAGTTTT,1 ± 0.017
26,TGAATTTCTG,1.029 ± 0.0094

row,Sequence,switch fluorescence ratio
1,ATGGGGTATG,0.987 ± 0.024
2,CATGGGAGGT,0.9711 ± 0.0067
3,ATTGGAGTCG,0.9477 ± 0.0084
4,TTTAGTGTGG,1.02 ± 0.044
5,CGGGGGGCGT,0.999 ± 0.021
6,GAGGTCTGGG,0.978 ± 0.015
7,TATAACGGGA,1.05 ± 0.027
8,GGGGTGTTAT,0.955 ± 0.037
9,TTTTAGGCGT,0.99 ± 0.013
10,ATGTGTGGT,0.959 ± 0.023
11,TTCTTTGGCA,1.052 ± 0.0061
12,ATCCCAATGT,1.14 ± 0.026
13,TTTCTAAGTT,1.03 ± 0.021
14,GAATTAGGTT,1.01 ± 0.077
15,CGTGTCCGTG,1.01 ± 0.011
16,TTATCTAGCT,1.03 ± 0.023
17,CGATTTAATA,1.01 ± 0.051
18,GGAGGGGGTA,1.01 ± 0.016
19,CGTGGGGGGT,1.01 ± 0.018
20,GGTGGGTGCT,0.995 ± 0.052
21,CGTGTTGGTC,1 ± 0.012
22,AGAGAGTTTT,0.984 ± 0.021
23,ATAAGTGTCA,0.9926 ± 0.0067
24,ATGCAGTGTG,1.02 ± 0.019
25,ATATCCCCCA,1.15 ± 0.11
26,ATAAATCGAT,1.023 ± 0.0018

row,Sequence,switch fluorescence ratio
1,GGTGGATGGG,0.987 ± 0.014
2,GTTCGGGCAT,1.07 ± 0.026
3,GGGTTATTGT,1 ± 0.016
4,TGGGGTGGGA,0.991 ± 0.029
5,TTGGTAGTCT,1.04 ± 0.012
6,AAAGCGTGTT,1.02 ± 0.05
7,CAATTGGGGG,0.9968 ± 0.0078
8,ATAGGGCTGG,0.968 ± 0.024
9,GCGTGTATGG,1.03 ± 0.03
10,AAATATGGTG,1 ± 0.021
11,GCGTTAAAAG,1.03 ± 0.02
12,GTTACTTGAG,0.9985 ± 0.005
13,TTTTTAGACT,1 ± 0.038
14,AAGTTGTAAT,1.014 ± 0.0013
15,TACAGGGTTT,1.021 ± 0.005
16,GCGGCATTGG,1.04 ± 0.053
17,TTGGAGTTG,1.02 ± 0.048
18,TTGTGTTTCG,0.967 ± 0.028
19,GTGGGTATTG,1 ± 0.02
20,ACGGAGGGAA,1.07 ± 0.085
21,ATAAAATCTA,1.02 ± 0.061
22,TTCGATAGTT,1.89 ± 1.2
23,GGGGAAAGCA,1 ± 0.015
24,TTTTGTGTGG,1.01 ± 0.026
25,CGAGTCAGTG,0.979 ± 0.065
26,GGGCCGGGAC,0.961 ± 0.01

row,Sequence,switch fluorescence ratio
1,TGGTGGCTTT,0.996 ± 0.015
2,GGGGTTTAGG,0.989 ± 0.026
3,CTTAGCTCTT,1.03 ± 0.022
4,TAGGTTGTCG,0.973 ± 0.077
5,GGGGAGCGGG,0.99834 ± 0.00014
6,GGGCAGGGTT,0.999 ± 0.03
7,TCAAGTTGGC,0.998 ± 0.09
8,AATTTTAGCC,0.987 ± 0.011
9,ACTCAATTAG,1.025 ± 0.01
10,GTAGATAGTT,1.02 ± 0.036
11,ATTCATTTTA,0.999 ± 0.034
12,CTAATGCGGA,1.01 ± 0.019
13,CGCGACGAGT,0.9823 ± 0.0053
14,AGGACCGTTT,0.991 ± 0.016
15,AAGCAAGGGA,1.065 ± 0.01
16,GTGCTTGGGG,0.99 ± 0.044
17,TAGTTGGCAG,0.9773 ± 0.0054
18,CTCGATGCGT,1.04 ± 0.013
19,TTTTAATTAA,1.01 ± 0.044
20,AAGTGGGTGG,1.02 ± 0.021
21,AAGATCCGCT,1.13 ± 0.027
22,ATTGGTTAAA,1 ± 0.026
23,GGGATTTCTG,1.03 ± 0.04
24,TAGTGATTGG,1 ± 0.052
25,GGGATTGGTT,0.999 ± 0.047
26,TTGATCGGTT,1.002 ± 0.00027

row,Sequence,switch fluorescence ratio
1,CGTTGTGGGG,0.966 ± 0.023
2,CGGGGGTATG,0.994 ± 0.034
3,GAGGAATTTT,0.983 ± 0.0093
4,ATGCTATGTG,0.9752 ± 0.0055
5,GGGGAGCGTC,1.01 ± 0.032
6,CTCTGGTGGC,1.08 ± 0.054
7,TTTGGGCCAT,1.04 ± 0.12
8,AAAGATTAGT,0.9713 ± 0.0097
9,GTGTTTGTGG,0.966 ± 0.033
10,ATGGTAGTTG,0.985 ± 0.018
11,TTGCGGTTGG,1 ± 0.076
12,ATTATATAGC,0.996 ± 0.031
13,CATTTGGGTT,1.03 ± 0.059
14,ATCGTTCTTT,0.973 ± 0.027
15,AGTTGGGATT,1.032 ± 0.01
16,TGAGAAGACT,1.03 ± 0.033
17,ACAGGGATTT,1.03 ± 0.041
18,TCGTGGCTGT,1 ± 0.042
19,ATAAAAGGCG,1.021 ± 0.0061
20,GTATTTGTTC,1.01 ± 0.034
21,ACAGGCGATC,1.09 ± 0.018
22,CTCTTCTCTT,0.9657 ± 0.0088
23,GGTACGGTTT,1.04 ± 0.02
